Assay results from the DeepSol protein solubility set.

test: soluble on expression in E. coli; label from the status in PepcDB or PDB records

Sequence	soluble on expression in E. coli
MWPSNRGPTLFQYSIRCLGFVAFIGVVRCHCPHMMGVKPPGPPSGPSPPGKFPDGDEGWDYDETAAPGIVPEPHFIQSTYIYRSPNVQEKTFSSRVVNVLKDIRTRLAKSARLTLENENIECSSPTDHYRCQEYPASGTWNYLIVEDQQKGAVTYTFDRKFNEKNDGTIEMALLDAFSRHSPSSLIAFASSEAEKEVGYIRALTVQEMDSLSGKRSHQKISMEKFGPNELILLEPALLEVRTGANLKLNSDSLRRIDSTKEFDKLLEEFRNVFILFWNSNRMVSLHTFNLWSRVADKIKISEDTLLAHVPCHDNADFCQGLNSEDYHTVVSYRNGQNTGKTENIGDVEFYENWVELSLSGAIQRLPNESKLSEFKKGIVGGKKRSSVTIGVFPSDQDTSFQHFQIAAEKLSGKYYVAYFINENSKPAITTYRHAEKQKRTDYSGKFDPATLMEFITKSSIPSIIGISNGFTTDLLFHQKRPILIQIGGAGEFEPFSKLSARQDARKTYIFTKIDGESEMIKKTKKALGVGENESIIVFLNKDRVHRIPISKPKCPDHLQKILQMIITSEADQVLSTKEPHPLRYLQVEKVNEVFGFEETLVLPDHTLFLDSDPFSRHPPITEGGGGGCPFMQGGGAPTESSQHSEL	not soluble
RPAVFPRMGVLPARVALLGQGQHWGVDFCLNVFRANFAEDREIQSEDVVRDLLRAQDLDADALIAQARQESTKEALRKQVDRARALGIFGAPTFMVDGEMFWGNDRLED	not soluble
MGSDKIHHHHHHQLVLAPADAERYAQNSFPEYLELLTLQNDAAVPADIQRNADWLEKAFQKRGFTTQTLTNGDKPLVYAEFGAAKSDRKTILFYMHFDGQPVNPSEWQTPPWQPVLKEKDAAGKWQTLPESRLLKGDINPEWRIFARASADDKGPIVMFLAAMDAMKEKGVEPAVNIKVLLDSEEEKGSPGLTTVMADHLMLLKSDGMVIYDGAMPSSNRPGINFGNRGSIQIDMTVFGANAAAHSGGYGNVIPNPVQNLATLLASMKDADGKVTIPGYYDRVTLSDSDKKQVAETSPPAGSLEKRFGVAQLDKVAGNAAEAVQYPSLDILGIKAGETGKKASNAIPSTATASVNIRTVPETPPDDMYALLRQYIASKGFHIIAGESPTQAEREQYPHLISLHLTAYPSSAYAARTEIDSPLGHWAVATTTAPRGIAPEKNRMMGGTLPMSGAVSVLKVPYVIVPLVNADNNQHSFDENLRLGNYLEGIRTIVAMATTPLS	not soluble
PVNQVQSSVSWPQNGSLNSVSAPLMSYTPISFDAKIPVASVDKLRKDQDLILGTLPANSEDAGARGLFVRANDDGLQITSHGELVLDLSKRELAQLPADATIAISATEDETTAGIEGDDSTTETVERDVRPIIMGIYTELESNAAADLLNAGLNAHVEINSRFTSSPTLAKYAS	soluble
KEAMRMLMREELEKVLKTLSPREAMVLRMRYGLLDGKPKTLEEVGQYFNVTRERIRQIEVKALRKLRHPSRSKYLKSLLSLMDENEG	soluble
SKHSNKPYDSFQDELEDYIKVQKARGLEPKTCFRRMRGEYLESCGYREEFDSRPRYRMFDQRLPSGTNHSYPRSCSSSQTEDRVPQWLPAHDKIRLNSLSYCQFTRDGFSEKPVPLNLSQQEYNCGSYSVESVVHKRLCSEHSTIDPQVSHRQMHQKRKKHVEEGREKQEERPKHERKRSSEEMDLNKHRSIQRKKTKAETETVQDGTEKLKNRKEKKTRDVSSKKEDRKRRKEKKEQGEERTEEEMLWDQSILGF	soluble
MPLNKLIQDGDNQDLTDERFKATFDTDALAAVFHGGEDALKRIRELRDEVTKRWHLFDALPGAHRTRAERMEDVSRKLKNLMESVGEFADFTNNLDMLVIIRDVMGIEGFPLALHNLMFVPTIQNQADDEQTEWWLMDALQGKIIGTYAQTELGHGTNLGAIETTATYDKLTEEFIIHTPTTTATKWWPGGLGTSCTHVVLVANLIIDTKNYGLHPFFVPIRDRNSYSVMSGVRVGDIGTKMGVNCVDNGFLAFDNYRIPRRNMLMKHSKVSKEGLYTAPSHPKVGYTTMLYMRSEMIYHQAYYLAMAMAISIRYSAVRRQGEIKPGTQEVQILDYQTQQYRIFPGLARCFAFNTAAATVRQMTENCIKQLSHGNSDVLADLHALSCGLKAVVTHQASQSIDQARQACGGHGYSDASYLPTLYTCSVGACTYEGENMVMLLQLSKYLMKAAAKAEKGEEMAPLVAYLVKPDITETNDKFAKMLSHFEHIARHRVMHAYRQMIEEEKQGIERDYAFANHSVDWTKAARAHTKLFIARGFVKSVQEVSDEAVHDVLTTLAELYLSYELIEMSADLTANGYLSESDVQQIRHQIYDSMRKTRRNAVSIVDSFDICDRELRSVLGRRDGHVYENLYKWAQMSPLNERNLPHVEKYLKPMTSKL	not soluble
TDRVIMSIFTSDKLVDQSWGSLAYLAQLHVEKKFPVDIELYSEVDTIEKMEESLHASIDRKTELIIGHGREFSDIFTKVAPSYPTVRFVTIHGSATYENQTVYTFEKGKIELIAALAATMKSKTRKVALIDAYDGREDEPYFERGLEKYANDIEFFYYVVNSRHDGKQAKAVMDKLIKEGVDVVYSRGNAFNRDVIHYAKQHDIYVIGFLDDQSYLGEEHVLTSVLNDVTQAYVKI	not soluble
MNNYIDLAKTYGGFTSLDTNYLNHLLASLTDQQKLAFITPPPSVINAYFAEIYQKQSPQAATDYYFNLSKALGLFTDQPSFEEEKPFVRLNLSGKAYGFAYQNDQEVALVFSEKAEPKKPELFFELTQIFPQYMVYEDKGQLKMQAKQFEQGECEDITPDDTLLSKIYRLANGITMLKGFNVEELWALSQTFSGQKYYDFAQREFMIYITQ	not soluble
MGSDKIHHHHHHMKYQQKLRNMIDFIGKHLDEELSLESLSEIFCISKFHFHRLFTAFTGLSLQQYIKWLRLKRAAHQLIVDKDQSVINIAINAGFESHEAFSRAFKKACGFSPSQFRQGFGRSYWEQPPYCLPGQSRTDMKVDIKSIDKIRLAVIEHKGDPKLLGESINKLVSWAKSQSINLKPRAGEAFALAYDDPKTTPPSDFRIDLGIKVPENLKLDGVIEKFLPSGRYAVTVHKGSRNNIGDVVYYLYRDWLPNTSEQLGDLPCIFCYYNFDHEVAETELLTECWLLLK	not soluble
AETVESCLAKSHTENSFTNVWKDDKTLDRYANYEGCLWNATGVVVCTGDETQCYGTWVPIGLAIPENEGGGSEGGGSEGGGSEGGGDDIFGELSSGKNAPKTGGGAKGNNASPAGSGNTKNNGASGADINNYAGQIKSAIESKFYDASSYAGKTCTLRIKLAPDGMLLDIKPEGGDPALCQAALAAAKLAKIPKPPSQAVYEVFKNAPLDFKPAAAHHHHHH	soluble
MAKEWFTVKECLGLPGFPGSEPAVRERLYKYSEGKEGVRRKRVKSKAEEFHISVFPLYVHRYLDDSGEEPTPEPISLQEAEPEDIWEMMFRLLTPEQRKQVTGRFKVRGMKAVFPFLFDDTPPR	not soluble
KKLDLLITGVGGQGAILASDIIGKAAVISGIPIRAAETHGMAQRGGSVVNHIRLGSDLGSMIPKKGADIMLALEPMEAVRYLDFLKDGGVIIVNTQSIIPVTVTSGLSKYPEVQEILDALSEKYVVKAFNADELAHEAGSRLAMNVAMVGAVSGYLPISKEVLLESVKVLVPKKTIEINIRAFEMGREEVEE	not soluble
MTSLPPRNRSASLFEGSPFAPSSTTSPPTSSLAKMLKSEPIPCLRCGNVGSPTGSVPMSLHKVSSINRSAGTNPASRGGESSLELEAIAAVHELSFAVQSISVSEMLPRTPDLIFVNVTTLEAQPYCLELTLKGWRITSLRSDCMVGDFTRLELFTKYYDSLYLLMDDISPGYRERFSEKLVQRLKLIEAGEEDQVAPCASLQSPSLSTDSSSKESQYSSTESLPIVTPVSTPAIDPDFKPKFK	not soluble
MAHHHHHHMNNSSAVATGDNPQLQKPMIYKNRARSIVHRSVRNGSENQLTEQANGTSIRDKIRRLFSSKHDQTIRDMQKTKLTKNKSIQEQEPSERNVDGFLSTDHQSVEWQPVYRETCKIKLPVEEGATKIAMPEEVLDDWVHSQHKISQQLGRRKGGEFVQDNQSLGDHDQGDDLLELGGDCLLGKNASRKSCNLKSTEDQYSKFKYYYNYYLVDEYLESLAASPNKELDATGLDEHGQLYDNVSLNARPIIVSKQRLESGVPYDPSKLLQ	not soluble
MRKSMISFLEKKAKNEKITMVSAYDYHSARILDNSDIDIILVGDSLAMTVLGMQDTLSVTMDEMLIFTKAVSRGAKKSFVLADMPFMSYQSSDRDAILNASRFIKESHANGVKVEGGIEIASKIKLISQSGIPVVAHLGLTPQAVNMLGGYRVQGKDLQSAQKIIDDAKAVQDAGACMLVLECVPVKLAQKISSILEIPTIGIGSGKYCDGQVLVYHDLLGLNKDFKAKFVKHFDKIDPQVGVEKYRDEVKSGIFPSQEHSFDYLDDELLDKLY	not soluble
YEKYRWSISRSGYLIILGRDASQNESIVKKYLRDKDIFLHADIIGAPATIIITQDNKTISEEDIYDAAVMAASYSKAWKVGLASVDIFWVLGNQVSKSPPSGEYLNK	not soluble
MGSDKIHHHHHHMNLYVGLDVGTTGVKGILVNEKGEILATANERLTMFTPQPAWAEQDPLSWWEAVKKILKNLSERSKEMGGKIRAISTSGQMHSLVAIDDNGKVLRNAILWCDQRTYKECEEATQILGGEENVLKLVGNPILPGFTLPKILWIRKHEPEIYGKISKIMLPKDFINYMLTGEVKTEHSDASGTVMYSVSKMEWNKDVLKELNIPESVLPEIIPSNGVVGNVKPEVASDLGLSEDTLVIGGGADNACAALGIAVVEPGDVMVSLGTSGTVLAPTKGNQPDPKGRVHFFAHTVPETRYHMGVMLSATYSLEWFKEKFLSEDYETINEEVDKIPAGSNGIIFLPYLNGERTPHRDPFARGVFFGISSYNTKWDMVRAIFEGVAFGIKDSFDILRELKVVLNSVRITGGGSKSRVWNKMLADMTGLRIQKPAVDEGASYGAAILAVSGSMGENPAKISKEWFRVKSYTDPAVENTETYEKLHEKFKKLYTSLKEMFRS	not soluble
MSVIKMTDLDLAGKRVFIRADLNVPVKDGKVTSDARIRASLPTIELALKQGAKVMVTSHLGRPTEGEYNEEFSLLPVVNYLKDKLSNPVRLVKDYLDGVDVAEGELVVLENVRFNKGEKKDDETLSKKYAALCDVFVMDAFGTAHRAQASTHGIGKFADVACAGPLLAAELDALGKALKEPARPMVAIVGGSKVSTKLTVLDSLSKIADQLIVGGGIANTFIAAQGHDVGKSLYEADLVDEAKRLLTTCNIPVPSDVRVATEFSETAPATLKSVNDVKADEQILDIGDASAQELAEILKNAKTILWNGPVGVFEFPNFRKGTEIVANAIADSEAFSIAGGGDTLAAIDLFGIADKISYISTGGGAFLEFVEGKVLPAVAMLEERAKK	soluble
MISASLQQRKTRTRRSMLFVPGANAAMVSNSFIYPADALMFDLEDSVALREKDTARRMVYHALQHPLYRDIETIVRVNALDSEWGVNDLEAVVRGGADVVRLPKTDTAQDVLDIEKEILRIEKACGREPGSTGLLAAIESPLGITRAVEIAHASERLIGIALGAEDYVRNLRTERSPEGTELLFARCSILQAARSAGIQAFDTVYSDANNEAGFLQEAAHIKQLGFDGKSLINPRQIDLLHNLYAPTQKEVDHARRVVEAAEAAAREGLGVVSLNGKMVDGPVIDRARLVLSRAELSGIREE	soluble
TTLASIGKDIIEDADGIAMPHQWLEGNLPVSAKCTVCDKTCGSVLRLQDWRCLWCKAMVHTSCKESLLTKC	soluble
MSLGNKRVLITGATGFIGGYLVDEALRRQYEVWAAVRPHSDRSRLTDSRIRFVEIDYRDPSDIARLADKIAPEGESAWHLVIHNAGITKARDTSLFREINAEQTKRFLIGLQGAKHCPERFVLMSSMGSYGAPPDDCQPLSSSSVPKPTTAYGESKLLAEQYVQTFVTIPYTIIQPTGVYGPHDQDYLMAIRSVDKGFDFSTGNTPQTLTFIYAEDLASAVFIAAEHPDAAGQKYIVSDGKEYTDIEFGRMIQHLLDRKNVCHLRIPLPLVKATCYIGQKWADISGTLTPLNLDKYAIIAQRNWRCDSSPIRAIGFSPRYNLEQGLAETIRWARTTGQIREGHHHHHH	soluble
